Target: endogenous ErbB-4 of T47D human breast cancer cells (human) (UniProt Q15303)
Assay: cell-based or functional assay

UniProt Q15303, sequence (Q15303 26-1308, stated change not applied): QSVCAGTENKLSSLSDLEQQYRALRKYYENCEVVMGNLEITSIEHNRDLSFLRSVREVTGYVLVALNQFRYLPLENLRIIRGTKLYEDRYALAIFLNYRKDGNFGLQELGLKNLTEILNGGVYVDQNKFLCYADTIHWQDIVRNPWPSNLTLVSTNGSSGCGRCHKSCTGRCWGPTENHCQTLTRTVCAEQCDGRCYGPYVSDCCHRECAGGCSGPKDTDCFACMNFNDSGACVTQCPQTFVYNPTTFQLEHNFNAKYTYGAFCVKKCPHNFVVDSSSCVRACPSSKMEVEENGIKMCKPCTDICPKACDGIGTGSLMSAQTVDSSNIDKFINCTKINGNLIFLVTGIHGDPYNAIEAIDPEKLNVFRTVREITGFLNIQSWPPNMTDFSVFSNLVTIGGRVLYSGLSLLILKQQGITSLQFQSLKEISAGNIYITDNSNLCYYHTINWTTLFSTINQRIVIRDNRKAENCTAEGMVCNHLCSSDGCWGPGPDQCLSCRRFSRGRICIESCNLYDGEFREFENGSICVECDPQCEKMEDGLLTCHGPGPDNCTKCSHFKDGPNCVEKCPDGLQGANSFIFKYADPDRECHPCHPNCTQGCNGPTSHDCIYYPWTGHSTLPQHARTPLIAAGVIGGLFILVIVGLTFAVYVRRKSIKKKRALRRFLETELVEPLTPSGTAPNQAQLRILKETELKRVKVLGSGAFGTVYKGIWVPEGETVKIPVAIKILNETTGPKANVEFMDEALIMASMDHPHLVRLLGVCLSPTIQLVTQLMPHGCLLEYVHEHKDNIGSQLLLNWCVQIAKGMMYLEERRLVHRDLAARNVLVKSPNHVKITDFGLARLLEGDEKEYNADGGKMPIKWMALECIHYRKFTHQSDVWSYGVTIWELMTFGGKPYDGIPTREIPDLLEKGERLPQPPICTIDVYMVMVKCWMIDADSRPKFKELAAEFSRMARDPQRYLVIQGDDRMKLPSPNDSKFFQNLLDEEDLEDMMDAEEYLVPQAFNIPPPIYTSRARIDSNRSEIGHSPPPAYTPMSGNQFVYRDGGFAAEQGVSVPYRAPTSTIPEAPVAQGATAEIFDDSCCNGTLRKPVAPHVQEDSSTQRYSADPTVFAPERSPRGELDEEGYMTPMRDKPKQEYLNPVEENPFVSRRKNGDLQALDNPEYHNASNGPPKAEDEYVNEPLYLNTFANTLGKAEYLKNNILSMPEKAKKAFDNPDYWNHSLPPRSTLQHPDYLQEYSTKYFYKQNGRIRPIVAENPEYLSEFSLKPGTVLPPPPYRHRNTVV

colony formation in soft agar, T47D wild type cells treated with neuregulin (FIG. 13): 11 fold
colony formation in soft agar, ribozyme transfected T47D cells (T47D/Rz, ErbB-4 down-regulated): 2.5 fold
Substance: NRG1-α (from UniProt Q02297 177-241) (ligand)

From patent publication US6566104
